Like-named read-outs stand apart in the source and are kept apart here.
T1: human CEACAM5-his (ACRO CE5-H5226) (human, UniProt P06731 35-685)
T1 construct: Bought protein; not shown: His tag
T1 sequence (looked up): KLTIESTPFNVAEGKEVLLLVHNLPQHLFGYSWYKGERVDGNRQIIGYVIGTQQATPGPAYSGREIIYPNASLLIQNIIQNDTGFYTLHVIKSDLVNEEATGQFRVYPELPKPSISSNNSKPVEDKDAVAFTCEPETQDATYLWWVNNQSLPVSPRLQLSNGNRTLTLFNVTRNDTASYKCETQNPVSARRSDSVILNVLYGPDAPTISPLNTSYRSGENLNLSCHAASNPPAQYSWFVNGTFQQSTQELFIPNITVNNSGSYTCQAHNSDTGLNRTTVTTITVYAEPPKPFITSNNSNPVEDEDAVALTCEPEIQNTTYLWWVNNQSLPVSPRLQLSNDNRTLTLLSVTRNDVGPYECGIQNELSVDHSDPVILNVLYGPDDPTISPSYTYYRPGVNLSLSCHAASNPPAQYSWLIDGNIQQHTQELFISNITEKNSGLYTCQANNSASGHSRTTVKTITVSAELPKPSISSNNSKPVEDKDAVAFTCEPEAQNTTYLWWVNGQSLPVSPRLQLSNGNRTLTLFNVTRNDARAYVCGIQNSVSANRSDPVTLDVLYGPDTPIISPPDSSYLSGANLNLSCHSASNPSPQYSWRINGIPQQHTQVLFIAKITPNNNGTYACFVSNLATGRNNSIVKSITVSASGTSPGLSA

T2: CEACAM6 on the surface of the tumor cells (HPAFII cells) (UniProt P40199 35-320)
T2 construct: whole, on cells
T2 sequence (looked up): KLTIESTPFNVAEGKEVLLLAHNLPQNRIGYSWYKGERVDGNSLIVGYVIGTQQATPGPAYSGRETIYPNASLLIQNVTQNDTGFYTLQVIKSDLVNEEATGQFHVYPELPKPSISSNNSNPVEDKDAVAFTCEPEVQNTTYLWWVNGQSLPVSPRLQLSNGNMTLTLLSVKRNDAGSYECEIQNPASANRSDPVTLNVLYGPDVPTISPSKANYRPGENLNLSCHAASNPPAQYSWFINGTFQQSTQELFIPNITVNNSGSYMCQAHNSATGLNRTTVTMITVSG

T3: CEACAM5 on the surface of the tumor cells (HPAFII cells) (UniProt P06731 35-685)
T3 construct: whole, on cells
T3 sequence (looked up): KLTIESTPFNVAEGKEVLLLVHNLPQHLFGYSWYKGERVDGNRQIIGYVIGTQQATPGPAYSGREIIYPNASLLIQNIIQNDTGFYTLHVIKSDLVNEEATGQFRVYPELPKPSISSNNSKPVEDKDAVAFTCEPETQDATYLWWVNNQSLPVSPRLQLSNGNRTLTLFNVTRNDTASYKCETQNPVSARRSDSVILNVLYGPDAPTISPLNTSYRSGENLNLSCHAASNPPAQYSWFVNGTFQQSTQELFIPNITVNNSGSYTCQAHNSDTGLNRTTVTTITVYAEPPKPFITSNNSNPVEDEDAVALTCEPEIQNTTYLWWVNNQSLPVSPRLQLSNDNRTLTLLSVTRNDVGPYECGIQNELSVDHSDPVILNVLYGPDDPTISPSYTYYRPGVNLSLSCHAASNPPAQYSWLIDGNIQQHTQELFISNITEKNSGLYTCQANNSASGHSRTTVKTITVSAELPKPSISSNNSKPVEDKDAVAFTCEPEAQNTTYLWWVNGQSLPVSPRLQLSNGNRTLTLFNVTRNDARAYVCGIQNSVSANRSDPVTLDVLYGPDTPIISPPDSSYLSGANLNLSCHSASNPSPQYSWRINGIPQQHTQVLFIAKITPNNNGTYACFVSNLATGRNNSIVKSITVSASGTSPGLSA

T4: mouse CEACAM5 (mouse, UniProt Q3UKK2 35-947, limits assumed)
T4 sequence (looked up): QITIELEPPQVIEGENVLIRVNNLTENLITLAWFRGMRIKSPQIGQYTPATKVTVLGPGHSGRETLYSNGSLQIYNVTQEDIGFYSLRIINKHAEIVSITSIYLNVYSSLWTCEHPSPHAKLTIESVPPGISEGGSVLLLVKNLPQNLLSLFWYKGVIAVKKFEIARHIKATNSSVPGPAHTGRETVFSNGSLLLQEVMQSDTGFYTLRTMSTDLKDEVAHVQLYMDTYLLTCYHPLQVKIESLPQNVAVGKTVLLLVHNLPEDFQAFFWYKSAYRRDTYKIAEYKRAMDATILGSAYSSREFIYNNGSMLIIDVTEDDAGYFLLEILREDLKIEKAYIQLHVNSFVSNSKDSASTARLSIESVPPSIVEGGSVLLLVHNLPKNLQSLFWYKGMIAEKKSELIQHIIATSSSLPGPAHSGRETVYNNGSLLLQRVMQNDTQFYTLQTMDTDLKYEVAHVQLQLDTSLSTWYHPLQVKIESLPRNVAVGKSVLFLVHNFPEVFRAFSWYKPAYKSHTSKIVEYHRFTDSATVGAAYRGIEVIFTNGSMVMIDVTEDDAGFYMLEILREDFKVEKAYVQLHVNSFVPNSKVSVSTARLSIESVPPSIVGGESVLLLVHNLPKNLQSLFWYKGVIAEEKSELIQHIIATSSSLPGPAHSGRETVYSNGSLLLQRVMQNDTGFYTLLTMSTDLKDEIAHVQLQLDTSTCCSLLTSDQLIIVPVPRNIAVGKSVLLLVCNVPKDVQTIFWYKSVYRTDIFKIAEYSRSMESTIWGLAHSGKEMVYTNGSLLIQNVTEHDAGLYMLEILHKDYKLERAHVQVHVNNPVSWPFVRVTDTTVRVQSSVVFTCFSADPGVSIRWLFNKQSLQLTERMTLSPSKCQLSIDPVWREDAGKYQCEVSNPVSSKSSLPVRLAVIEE


Experiments:
[1] = target: T1, human CEACAM5-his (ACRO CE5-H5226); experiment: ELISA on coated human CEACAM5, OD450
Experimental: (§1) The binding activity of the antibodies to human CEACAM5, human CEACAM6, and human CEACAM6 (AB) proteins was detected by ELISA. The plate coated with proteins was incubated at 4° C. overnight, and the 96-well ELISA plate blocked with 2% PBS-BSA was added with the antibody to be detected and incubated at 37° C. for 1 h. After washing 3 times with PBS containing 0.05% Tween, the absorbance value of each well was read at wavelength 450 nm with the gradient-diluted mouse-derived candidate antibody as the primary antibody and anti-mouse-IgG-FC-HRP as the secondary antibody, and the absorbance value of each well was read at wavelength 450 nm after the TMB color development.

[2] = target: T2, CEACAM6 on the surface of the tumor …; experiment: flow cytometry on HPAFII cells (Mean-FITC); the cells carry CEACAM5 and CEACAM6, signal not divided between the two
Experimental: (§2) The antibody to be tested was taken as the initial concentration of 200 nM and diluted 5-fold with 6 gradients. The HPAFII cells (From USTC […] FOR ADVANCED STUDIES) in the incubator were taken out, and the cell suspension was transferred to a 15 mL centrifuge tube, centrifuged, and counted by resuspension in PBS. A blank control group (Blank), a negative control group (NC), an experimental group, a positive control group and the irrelevant antibody group were kept. […] The cell suspension was spread in a 96-well plate according to about 3×10⁵ cells/well. Centrifugation (1000 rpm, 5 min) was performed, followed by washing with PBS, re-centrifugation, and repeated twice to remove media residues. The supernatant was discarded, 100 μL of primary antibody solution and irrelevant antibody solution were added to the experimental group and irrelevant antibody group, respectively, and the cells were resuspended and incubated at room temperature for 1 h. The blank group, and the negative control group were incubated with an equal amount of PBS.
(§3) After 1 h, PBS was added to wash twice. After the supernatant was discarded, 100 μL of fluorescent secondary antibody dilution (Mouse-derived secondary antibody from Abcam ab6785) was added to each sample group, except for the blank group which was added with 100 μL of PBS. After incubation at room temperature and protected from light for 0.5 h, centrifugation was performed and PBS added to wash the samples twice. After the supernatant was discarded, 120 μL of PBS was added to resuspend and sequentially flow cytometry was performed to detect the mean fluorescence intensity. The concentration of the antibody was logarithmically taken as the horizontal coordinate, and the Sigmoidaldose-response (VariableSlope) method (GraphPadPrism Software, GraphPadSoftware, San Diego, California) was chosen to perform a nonlinear regression to obtain the binding activity curves of the antibody on HPAFII cells.

[3] = target: T3, CEACAM5 on the surface of the tumor …; experiment: as above
Experimental: as §2, §3

mouse CEACAM5 = target: T4, mouse CEACAM5; experiment: ELISA on coated protein, OD450
Experimental: The affinity of the antibodies to monkey CEACAM5, monkey CEACAM6, and mouse CEACAM5 proteins was determined by ELISA. The plates encapsulated with […] proteins were incubated at 4° C. overnight, and the antibodies to be detected were added to 96-well ELISA plates after being blocked with 2% PBS-BSA and incubated at 37° C. for 1 h. After washing 3 times with PBS containing 0.05% Tween, the absorbance value of each well was read at wavelength 450 nm with the antibody to be detected as the primary antibody and Goat anti-mouse IgG-FC-HRP as the secondary antibody, and the absorbance value of each well was read at wavelength 450 nm after the TMB color development. The specific binding to CEACAM5 and CEACAM6 of mouse and monkey was detected by Elisa method.

Human-CEACAM6 (AB)-His = target: T5, Human-CEACAM6 (AB)-His (human, UniProt P40199 145-314); experiment: ELISA on coated human CEACAM6 (AB), OD450
T5 construct: Made in house, purified on a nickel column
T5 sequence (P40199 other isoform, or with tags, fused parts or gaps limits assumed): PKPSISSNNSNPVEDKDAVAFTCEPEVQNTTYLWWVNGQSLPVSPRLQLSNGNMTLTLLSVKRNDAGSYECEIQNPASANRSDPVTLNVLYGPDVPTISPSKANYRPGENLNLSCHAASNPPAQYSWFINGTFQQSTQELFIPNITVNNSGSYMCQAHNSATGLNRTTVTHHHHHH
Experimental: as §1

[4] = target: T1, human CEACAM5-his (ACRO CE5-H5226); experiment: ELISA on coated human CEACAM5, OD450; remark: listed apart in the source
Experimental: as §1

[5] = target: T2, CEACAM6 on the surface of the tumor …; experiment: flow cytometry on HPAFII cells (Mean PE); the cells carry CEACAM5 and CEACAM6, signal not divided between the two
Experimental: Centrifugation (1000 rpm, 5 min) was performed, followed by washing with PBS, re-centrifugation, and repeated twice to remove media residues. The supernatant was discarded, 100 μL of primary antibody solution and irrelevant antibody solution were added to the experimental group and irrelevant antibody group, respectively, and the cells were resuspended and incubated at room temperature for 1 h. The blank group, and the negative control group were incubated with an equal amount of PBS.
as §3, with “(Secondary” for “(Mouse-derived secondary”, “ab98596)” for “ab6785)”

Row | EC50 (read off the curve) [1] [µg/mL] | EC50 (read off the curve) [2] [nM] | EC50 (read off the curve) [3] [nM] | Binder | also measured
1 | ~0.02 | ~3 | ~3 | Antibody 2 (antibody, V domains shown, Mouse-derived hybridoma antibody; also called mouse-derived antibody 2) VH: EVKLVESGGGLVQPGGSLRLSCATSEFTLIDYYMSWVRQSPGKALEWLGYIRNKVNGHTTDYIASVKGRFAISRDNSQSILYLQMNTLRVEDSATYYCVRDPGINWYFDVWGAGTTVTVSS VL: QIVLSQSPAILSASPGEKVTMTCRASSRVTYMHWYQQKPGSSPKPWISATSNLASGVPARFSGSGSGTSYSLTISRVEAEDAATYYCQQWSYNPPTFGAGTKLELN | OD (mouse CEACAM5): 0.15 OD
2 |  |  |  | Antibody 5 (antibody, V domains shown, Mouse-derived hybridoma antibody; also called mouse-derived antibody 5) VH: QIQLVQSGPELMKPGETVKISCKASGYTFTNYGMNWVKQAPGKGLKWLGWINTYTGKPTYADDIKERFVFSLETSASTAYLQINNLKNEDTATYFCARRDYRGWYFDVWGAGTPVTVSS VL: not shown | binding result [1]: binds; EC50 (read off the curve) (Human-CEACAM6 (AB)-His): ~0.04 µg/mL
3 | ~0.02 | ~2 | ~2 | Antibody 4 (antibody, V domains shown, Mouse-derived hybridoma antibody; also called mouse-derived antibody 4) VH: QIQLVQSGPELKKPGETVKISCKASGYTFTDYSLHWVKQVPVKGLKWMGWINTETGEPTYADDFKGRFAFSLDTSASSAYLQIHNLKNEDTATYFCASPVSLLFYYFTVWGAGTTVTVSA VL: DIQMTQTTSSLSASLGDRVTISCRASQDISHFLNWYQQKPDGTVELLIYYTSRLLSGVPSRFSGSGSGTDYSLTIANLEQEDIATYFCQQGKTLPWTFGGGTKVEIK | 
4 |  |  |  | Antibody 12 (antibody, V domains shown, Mouse-derived hybridoma antibody; also called mouse-derived antibody 12) VH: EVKLVESGGGLVQPGGSLSLSCAVSGFIFTDYFMSWVRQPPGKTLEWLALIRNKANGYIIEYSESVKGRFTISRGNSQSIFYLQMNALRTEDSATYYCARDIGIRWNFDVWGAGTTVTVSS VL: QIVLTQSPAIMSASPGEKVTMTCSATSRVTYMHWYQQKSGTSPKRWIYATSTLASGVPARFSGSGSGTSYSLTISSMEAEDAATYYCQQWSYNPPTFGSGTKLEIK | EC50 (read off the curve) (Human-CEACAM6 (AB)-His): ~0.009 µg/mL; EC50 (read off the curve) [4]: ~0.02 µg/mL
5 | ~0.02 | ~1 | ~1 | Antibody 3 (antibody, V domains shown, Mouse-derived hybridoma antibody; also called mouse-derived antibody 3) VH: EVQMVESGGGLVKPGGSLKLSCAASGFTFSDYYMYWVRQSPEKRLEWVATISDAGTYTSYLDSVKGRFIISRDNAKNNLYLQMSSLKSEDTAIYYCARNYYGSSPYGMDYWGQGTSVTVSS VL: QIVLTQSPAIMSASPGEKVTMTCSASSSVIYMHWYQQKSGTSPKRWIYDTSKLASGVPARFSGSGSGTSYSLTISSMEAEDAATYYCQQWSSHPLTFGAGTKLELK | 
6 |  |  |  | Antibody E (antibody, human IgG1, kappa, V domains shown, humanized from mouse-derived antibody 2; also called humanized antibody E) VH: EVQLVESGGGLVQPGGSLRLSCATSEFTLIDYYMSWVRQAPGKALEWVGYIRNKVNGHTTDYIASVKGRFTISRDDSKNSLYLQMNSLKTEDTAVYYCVRDPGINWYFDVWGQGTLVTVSS VL: EIVLTQSPATLSLSPGERATLSCRASSRVTYMHWYQQKPGQSPRPLISATSNLASGIPARFSGSGSGTDYTLTISSLEPEDFAVYYCQQWSYNPPTFGGGTKLELKR | binding result [5]: binds
7 |  |  |  | Antibody F (antibody, human IgG1, kappa, V domains shown, humanized from mouse-derived antibody 2; also called humanized antibody F) VH: EVQLVESGGGLVQPGGSLRLSCATSEFTLIDYYMSWVRQAPGKALEWVGYIRNKVNGHTTDYIASVKGRFTISRDDSKNSLYLQMNSLKTEDTAVYYCVRDPGINWYFDVWGQGTLVTVSS VL: QIVLTQSPATLSLSPGERATLSCRASSRVTYMHWYQQKPGSSPKPLISATSNLASGIPARFSGSGSGTDYTLTISSLEPEDFATYYCQQWSYNPPTFGGGTKLELKR | binding result [5]: binds
